“Also recorded” adds a separate entry of the source.
Tests used:
BMPR2 [1] = biological target: T1, BMPR2 (Homo sapiens, UniProt Q13873); experiment: Biopanning of Ph.D.-12 phage library on immobilized BMPR2-Fc; type: binding; settings: peptide displayed on p3 of M13 phage; 3 rounds of panning
T1 construct: purchased G&P Biosciences
T1 sequence (Q13873 27-150 limits assumed): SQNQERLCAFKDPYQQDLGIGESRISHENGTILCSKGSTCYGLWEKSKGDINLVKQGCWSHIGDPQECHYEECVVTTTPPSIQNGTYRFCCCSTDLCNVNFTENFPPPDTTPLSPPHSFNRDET
Method: (§1) The Ph.D.™-12 phage library was diluted in tris-buffered saline mixed with Tween-20 (TBS+0.1% v/v Tween-20 and abbreviated TBST) for a final concentration of 2×10^11 phage in 1 mL of TBST. The diluted library was then pipetted onto one of the wells of a 12-well poly-L-lysine plate followed by rocking the plate gently for 60 minutes at room temperature. […] This supernatant served as the starting phage library for subsequent binding selections. The phages which stuck to the plate were discarded.
(§2) This procedure is only applicable if the charge of the desired protein to be immobilized is negative, determined by checking the pI value of the protein. […]. This procedure was written for 12-well plates coated in poly-L-lysine (positively charged). Separate solutions of BMPR1A-Fc and BMPR2-Fc were prepared at 80 μg/ml in Tris-buffered saline (pH 7.5). In separate wells and on separate poly-L-lysine coated 12-well plates, 0.3 ml of each solution of receptor was added. The solutions of BMPR1A-Fc and BMPR2-Fc were swirled around the plate surface until the entire surface was wet. The plates were then incubated overnight at 4° C. with gentle agitation in a humidified container (a sealed plastic box with damp paper towels). Each individual receptor was now immobilized.
(§3) The following selection procedure is based off of the direct coating procedure outlined in the Ph.D.™-12 Phage Display Libraries instructional manual (New England Biolabs) with some alterations. This procedure was carried out after immobilizing the targets BMPR1A-Fc and BMPR2-Fc in a 12-well poly-L-lysine coated plate. A stock solution of tetracycline was prepared (20 mg/ml in 1:1 ethanol:water). The coating solution containing the target receptors was poured off followed by firmly slapping the plates face down on a clean paper towel. Each well was then filled with blocking buffer (0.1 M NaHCO3 (pH 8.6), 5 mg/mL BSA, 0.02% NaN3. Filter sterilize, store at 4° C.) and incubated for 1 hour at 4° C. The blocking solution was then poured off followed by firmly slapping the plates down against a clean paper towel. Each plate was washed rapidly 6 times with Tris-buffered saline mixed with Tween-20 (TBS+0.1% v/v Tween-20). The plate was slapped against a clean paper towel each time. 1 ml of the phage library created from the negative selection process was then pipetted onto each of the target coated wells. The plates were then rocked gently at room temperature for 60 min. The non-binding phages were then discarded by pouring off the supernatant and slapping the plate face-down on a clean paper towel. The plate was then washed 10 times with TBST followed by slapping the plate face-down on a clean paper towel each time (a clean section of paper towel was used each time to prevent cross-contamination). The bound phages were then eluted by incubating with a nonspecific disruption buffer (0.2 M Glycine-HCl (pH 2.2), 1 mg/ml bovine serum albumin (BSA) for 15 minutes. The eluate (immersed in the disruption buffer) was then pipetted into a microcentrifuge tube followed by neutralization with 150 μl of 1 M Tris-HCl (pH 9.1). A small portion (˜1 μl) of this eluate could be titered and sequenced if desired. The rest of the eluate was amplified (see amplification of phage library section). Once amplified, the eluate was also titered. Determine the concentration of amplified phages by counting the blue plaques in titering as described. Dilute the amplified library to contain 2×10^11 phages in 1 mL of TBS (as little as 10^9 plaque forming units per ml can be used if there is not enough). A second poly-L-lysine 12-well plate was then coated with the target receptors to allow for a second round of biopanning carried out using the same steps except that the Tween-20 concentration in the wash steps was raised to 0.5% (v/v). The eluate from the second round was then amplified, titered and used in an additional 3rd round of panning on newly receptor coated plates. […]

BMPR1A [2] = biological target: T2, BMPR1A (Homo sapiens, UniProt P36894); experiment: Biopanning of Ph.D.-12 phage library on immobilized BMPR1A-Fc; type: binding; settings: peptide displayed on p3 of M13 phage; 3 rounds of panning
T2 construct: purchased G&P Biosciences
T2 sequence (P36894 24-152 limits assumed): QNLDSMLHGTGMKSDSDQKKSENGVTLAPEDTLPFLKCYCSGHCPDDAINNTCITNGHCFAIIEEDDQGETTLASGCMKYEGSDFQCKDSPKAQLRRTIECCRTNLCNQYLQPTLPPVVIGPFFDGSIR
Method: as §1, §2, §3

BMPR2 [3] = biological target: T1, BMPR2; experiment: Enzyme-linked immune sorbent assay for receptor binding (BMPR2); settings: peptide on p3 of M13 phage; absorbance 450 nm; n=4; vs wild type phage
From the text: (§4) Groups having the same lowercase letter assigned (above the bar) were not statistically different from each other. Groups having different letters assigned (above the bar) were statistically different from each other. […] The primary antibody was mouse anti-g3p (p8) IgG. The secondary antibody was anti-mouse IgG conjugated with horseradish peroxidase. The substrate, 3,3′,5,5′-Tetramethylbenzidine was detected at 450 nm after stopping the reaction with 1 M HCl.
(§5) Blocking buffer (0.1 M NaHCO3 (pH 8.6), 5 mg/ml BSA. Filter sterilized, stored at 4° C.) was prepared. TBS (50 mM Tris-HCl (pH 7.5), 150 mM NaCl, autoclaved, stored at room temperature) was prepared. Separate solutions of the target receptors were then made. For BMPR1A, a 10 μg/ml stock solution was made. For BMPR2, a 10 μg/ml solution was also made. Separate wells with n=4 for each different peptide bearing phage group were then coated with one of the receptors. […] After a brief pilot test, it should be noted that using 10^10 phage/ml was determined to work best, but other concentrations of virus also worked consistently. […] Then, […] of freshly prepared 3,3′,5,5′-Tetramethylbenzidine (TMB) was added to each well and the absorbance at 370 nm and 652 nm was monitored for 1 hour using an ELISA plate reader. […] The absorbance at 450 nm for each well was then measured.

[4] = test system: human mesenchymal stem cells (hMSCs); experiment: Live cell binding through immunofluorescence; type: cell-based; settings: 10^12 phages/ml
Method: Human mesenchymal stem cells (hMSCs) were grown to roughly 60% plate coverage in a 48-well tissue culture plate according to the company Lonza's culturing protocols. […] The hMSCs were then blocked with 0.5% BSA (dissolved in cell media) for 1 hour. The cell media for the hMSCs was then replaced with 1 ml of new cell media having of concentration of 10^12 phages/ml. Next, the plates were washed once with 400 μl of phosphate buffered saline (PBS) at a pH of 7.4. The hMSCs were then incubated with Anti-M13 Bacteriophage Coat Protein g8p antibody [RL-ph2] (ab9225) at a 1:1000 dilution in cell media (200 μl per well). The wells were then washed again with PBS (400 μl per wash). Next, the hMSCs were incubated with the secondary antibody, Goat-anti mouse AF-488 (Abcam) for 1 hour (1 ug/ml final concentration of antibody in media). The wells were then washed again with PBS (400 μl per wash). A Hoechst nuclear stain was used to stain the nuclei (PureBlu™ Hoechst 33342 Nuclear Staining Dye #1351304 from BioRad) according to the company's protocol. Cell Mask™ Orange Plasma Membrane Stain was used to stain membranes (CellMask™ Orange Plasma Membrane Stain Catalog number: C10045 from Thermo Fisher Scientific) according to the company's protocol. The phages binding to the cells were then imaged on a Nikon Eclipse Ti fluorescent microscope.

BMPR1A [5] = biological target: T2, BMPR1A; experiment: Enzyme-linked immune sorbent assay for receptor binding (BMPR1A); settings: peptide on p3 of M13 phage; absorbance 450 nm; n=4; vs wild type phage
From the text: as §4
as §5, with “receptors. The coating was done by adding 100 μl of the target solution to wells of a 96-well plate followed by swirling until the surface was completely wet. The plates were then allowed to incubate overnight at 4° C. with gentle agitation in a humidified container (a plastic box lined with damp paper towels). Any excess target solution was then removed, and the plate was slapped face-down on a clean paper towel. The wells of the plate were then blocked with 200 μl of blocking buffer for 1 hour at room temperature. […] The blocking buffer was then removed from each plate followed by 5 washes with 200 μl of TBST. Each time the plate was slapped against a clean section of paper towel face-down.” for “receptors.”

Sequence | Binding to BMPR2 found by biopanning (frequency among sequenced plaques) (BMPR2 [1]) | Binding to BMPR1A found by biopanning (frequency among sequenced plaques) (BMPR1A [2]) | Relative binding strength in ELISA to BMPR2 (BMPR2 [3]) | Binding of peptide-bearing phages to live hMSCs [4] | Relative binding strength in ELISA to BMPR1A (BMPR1A [5])
DYHDPSLPTLRK (Completely synthesized in the lab - Ph.D.-12 Phage Display Peptide Library Kit (New England Biolabs)) | discovered to bind | discovered to bind | – | – | –
GNNPLHVHHDKR (Completely synthesized in the lab - Ph.D.-12 Phage Display Peptide Library Kit (New England Biolabs)) | discovered to bind | discovered to bind | – | – | –
NAKYPTMRPGPK (Completely synthesized in the lab - Ph.D.-12 Phage Display Peptide Library Kit (New England Biolabs)) | discovered to bind | discovered to bind | – | – | –
NAKYPTMRPGPL (Completely synthesized in the lab - Ph.D.-12 Phage Display Peptide Library Kit (New England Biolabs)) | discovered to bind | discovered to bind | – | – | –
RDYHPRDHTATW (Completely synthesized in the lab - Ph.D.-12 Phage Display Peptide Library Kit (New England Biolabs)) | most frequent peptide; also recorded: discovered to bind | discovered to bind | statistically significant binders | bound to what appeared to be the same location as the outer membrane; also recorded: demonstrated an ability to bind to the outer membrane | –
TAKSLPMRPGPL (Completely synthesized in the lab - Ph.D.-12 Phage Display Peptide Library Kit (New England Biolabs)) | discovered to bind | discovered to bind | – | – | –
TAKYLPMRPGPL (Completely synthesized in the lab - Ph.D.-12 Phage Display Peptide Library Kit (New England Biolabs)) | discovered to bind | most frequently obtained peptide; also recorded: discovered to bind | – | – | best binders
TSKYLTMRPGPK (Completely synthesized in the lab - Ph.D.-12 Phage Display Peptide Library Kit (New England Biolabs)) | discovered to bind | discovered to bind | – | – | –
